From article PMC4721543
pKd: −log10 of the molar value.

Assays:
human VEGF-A165 (human) [1] = assay: MST; 10 nM NT-647-labelled HGF or VEGF165 with serial dilutions of the unlabelled partner; 22°C, PBS plus 1% BSA; Monolith NT.115
human VEGF-A165 (human) [2] = assay: fluorescence correlation spectroscopy; as the FCS series, but VEGF165 labelled with NT 647 (Table 1)
human VEGF-A165 (human) [3] = assay: fluorescence correlation spectroscopy; 1-5 nM ATTO 647N-labelled growth factor with 0.1 nM to 20 μM unlabelled CD44 ectodomain; at least 3 h at room temperature; PBS with 0.05% Tween-20; 20°C; diffusion times fitted with a 1:1 binding model

pKd (human VEGF-A165 (human) [1]): 7.29 | pKd (human VEGF-A165 (human) [2]): 6.70 | pKd (human VEGF-A165 (human) [3]): 7.19
Substance: rat CD44v6 ectodomain, hexahistidine-tagged (from UniProt P26051 22-410) (domain or fragment)
